The source of these data is the supplement of paper PMC7877785.

± gives the uncertainty stated by the source.

The nature of the data set: self-splicing fitness, log relative to wild type (ln ratio); higher = more splicing; Tetrahymena group I intron in knt gene, E. coli kanamycin selection, DiMSum; sequences stand for … in CUCUCU…GGAGGGAAAAGUUAUCAGGCAUGCACCUGGUAGCUAGUCUUUAAACCAAUAGAUUGCAUCGGUUUAAAAGGCAAGACCGUCAAAUUGCGGGAAAGGGGUCAACAGCCGUUCAGUACCAAGUCUCAGGGGAAACUUUGAGAUGGCCUUGCAAAGGGUAUGGUAAUAAGCUGACGGACAUGGUCCUAACCACGCAGCCAAGUCCUAAGUCAACAGAUCUUCUGUUGAUAUGGAUGCAGUUCACAGACUAAAUGUCGGUCGGGGAAGAUGUAUUCUUCUCAUAAGAUAUAGUCGGACCUCUCCUUAAUGGGAGCUAGCGGAUGAAGUGAUGCAACACUGGAGCCGCUGGGAACUAAUUUGUAUGCGAAAGUAUAUUGAUUAGUUUUGGAGUACUCGUGGUCG
An outline of the steps: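 DiMSum derived fitness as the error-weighted combination of fold changes across replicates, kanamycin versus no kanamycin, normalised to wild type. E. coli BL21(DE3) held the library, which randomised all eight P1ex-region intron nucleotides within the knt kanamycin-resistance gene on pET-22b(+). Six replicate transformations grew overnight at 37°C or 30°C on LB agar with or without 25 μg/mL kanamycin, also containing 100 μg/mL carbenicillin, 50 μM IPTG and 0.2% rhamnose, and pooled colonies were amplicon-sequenced on an Illumina HiSeq 2500.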

As for GCCUAGCAAUAUUACGGCGC, the “self-splicing fitness (ln)” value is -0.67 ± 0.14 (30 °C) and 0.263 ± 0.18 (37 °C).

GCCUAGCAAUAUUACGGCGU: the “self-splicing fitness (ln)” value by setting is: (30 °C) -0.505 ± 0.074; (37 °C) -0.0919 ± 0.08.

For the sequence GCCUAGCAAUAUUACGGCUA, the “self-splicing fitness (ln)” value (30 °C) is -1.2 ± 0.46 and the “self-splicing fitness (ln)” value (37 °C) is -2.49 ± 0.39.

Take GCCUAGCAAUAUUACGGGCA: the “self-splicing fitness (ln)” value runs as follows: (30 °C) -1.3 ± 0.12; (37 °C) -1.61 ± 0.12.

Take GCCUAGCAAUAUUACGGGGG: the “self-splicing fitness (ln)” value was -2.92 ± 0.22 (30 °C) and -1.34 ± 0.13 (37 °C).

On to GCCUAGCAAUAUUACGGUAG, for which the “self-splicing fitness (ln)” value is -3.79 ± 0.18 (30 °C) and -2.99 ± 0.27 (37 °C).

Consider GCCUAGCAAUAUUACGUCAU, for which the “self-splicing fitness (ln)” value (30 °C) was -2.73 ± 0.2 and the “self-splicing fitness (ln)” value (37 °C) is -1.4 ± 0.17.

GCCUAGCAAUAUUACGUCCU: the “self-splicing fitness (ln)” value was -1.68 ± 0.068 (30 °C) and -0.494 ± 0.096 (37 °C).

Take GCCUAGCAAUAUUACGUCGA: the “self-splicing fitness (ln)” value reads like this: (30 °C) -1.67 ± 0.17; (37 °C) -1.6 ± 0.21.

As for GCCUAGCAAUAUUACGUGGG, the “self-splicing fitness (ln)” value was -4.52 ± 0.23 (30 °C) and -3.36 ± 0.3 (37 °C).

In the case of GCCUAGCAAUAUUACGUGUC, the “self-splicing fitness (ln)” value was -1.13 ± 0.056 (30 °C) and -0.843 ± 0.058 (37 °C).

As to GCGAAGCAAUAUUACGAAAA, the “self-splicing fitness (ln)” value (30 °C) was -3.24 ± 0.43.

With GCGAAGCAAUAUUACGAAAU, the “self-splicing fitness (ln)” value is -3.46 ± 0.35 (30 °C) and -1.07 ± 0.22 (37 °C).

With GCGAAGCAAUAUUACGAACA, the “self-splicing fitness (ln)” value reads like this: (30 °C) -1.49 ± 0.34; (37 °C) -1.16 ± 0.29.

With GCGAAGCAAUAUUACGAGCG, the “self-splicing fitness (ln)” value runs as follows: (30 °C) -2.04 ± 0.14; (37 °C) -1.11 ± 0.19.

As for GCGAAGCAAUAUUACGAGGA, the “self-splicing fitness (ln)” value (37 °C) was -1.58 ± 0.31.

For GCGAAGCAAUAUUACGAUUU, the “self-splicing fitness (ln)” value is -1.09 ± 0.057 (30 °C) and -0.156 ± 0.075 (37 °C).

In the case of GCGAAGCAAUAUUACGCAAG, the “self-splicing fitness (ln)” value (30 °C) is -2.51 ± 0.42.

Consider GCGAAGCAAUAUUACGCACU, for which the “self-splicing fitness (ln)” value runs as follows: (30 °C) -1.72 ± 0.18; (37 °C) -0.633 ± 0.21.

GCGAAGCAAUAUUACGCAUC: the “self-splicing fitness (ln)” value reads like this: (30 °C) -4.03 ± 0.44; (37 °C) -1.78 ± 0.23.

Turning to GCGAAGCAAUAUUACGCAUG, the “self-splicing fitness (ln)” value (30 °C) is -3.12 ± 0.44 and the “self-splicing fitness (ln)” value (37 °C) was -2.76 ± 0.24.

Turning to GCGAAGCAAUAUUACGCCAC, the “self-splicing fitness (ln)” value (37 °C) was -2.24 ± 0.42.

With GCGAAGCAAUAUUACGCCUU, the “self-splicing fitness (ln)” value (37 °C) is -1.5 ± 0.26.

For the sequence GCGAAGCAAUAUUACGCUAU, the “self-splicing fitness (ln)” value (30 °C) is -2.45 ± 0.1 and the “self-splicing fitness (ln)” value (37 °C) is -1.25 ± 0.11.

As to GCGAAGCAAUAUUACGGAAU, the “self-splicing fitness (ln)” value by setting is: (30 °C) -3.17 ± 0.13; (37 °C) -1.73 ± 0.13.

With GCGAAGCAAUAUUACGGAGC, the “self-splicing fitness (ln)” value is -2.69 ± 0.16 (30 °C) and -2.52 ± 0.21 (37 °C).

GCGAAGCAAUAUUACGGCCA: the “self-splicing fitness (ln)” value is, setting by setting: (30 °C) -0.992 ± 0.092; (37 °C) -0.821 ± 0.1.

GCGAAGCAAUAUUACGGGAG: the “self-splicing fitness (ln)” value by setting is: (30 °C) -3.05 ± 0.17; (37 °C) -2.62 ± 0.22.

Take GCGAAGCAAUAUUACGGGGU: the “self-splicing fitness (ln)” value is -3.89 ± 0.34 (30 °C) and -2.89 ± 0.29 (37 °C).

In the case of GCGAAGCAAUAUUACGGUCG, the “self-splicing fitness (ln)” value is, setting by setting: (30 °C) -3.65 ± 0.32; (37 °C) -2.77 ± 0.4.

As to GCGAAGCAAUAUUACGGUUG, the “self-splicing fitness (ln)” value is -1.54 ± 0.11 (30 °C) and -1.9 ± 0.15 (37 °C).

With GCGAAGCAAUAUUACGUCGA, the “self-splicing fitness (ln)” value reads like this: (30 °C) -2.01 ± 0.1; (37 °C) -0.792 ± 0.094.

In the case of GCGAAGCAAUAUUACGUGCC, the “self-splicing fitness (ln)” value was -3.73 ± 0.18 (30 °C) and -3 ± 0.23 (37 °C).

Turning to GCGAAGCAAUAUUACGUUAG, the “self-splicing fitness (ln)” value was -2.77 ± 0.12 (30 °C) and -2.35 ± 0.15 (37 °C).

Regarding GCGCAGCAAUAUUACGAAAG, the “self-splicing fitness (ln)” value reads like this: (30 °C) -2.66 ± 0.16; (37 °C) -1.68 ± 0.14.

With GCGCAGCAAUAUUACGAAGG, the “self-splicing fitness (ln)” value was -1.79 ± 0.087 (30 °C) and -0.733 ± 0.12 (37 °C).

For GCGCAGCAAUAUUACGACAA, the “self-splicing fitness (ln)” value was -0.598 ± 0.12 (30 °C) and -0.342 ± 0.11 (37 °C).

Regarding GCGCAGCAAUAUUACGACUC, the “self-splicing fitness (ln)” value was -0.32 ± 0.17 (30 °C) and 0.304 ± 0.15 (37 °C).

Consider GCGCAGCAAUAUUACGACUG, for which the “self-splicing fitness (ln)” value runs as follows: (30 °C) -1.91 ± 0.12; (37 °C) -1.98 ± 0.23.

In the case of GCGCAGCAAUAUUACGAGUG, the “self-splicing fitness (ln)” value was -1.6 ± 0.1 (30 °C) and -1.47 ± 0.15 (37 °C).

Consider GCGCAGCAAUAUUACGCAGC, for which, for the setting “37 °C”, the “self-splicing fitness (ln)” value is -1.32 ± 0.33.

Turning to GCGCAGCAAUAUUACGCCAC, the “self-splicing fitness (ln)” value (37 °C) was -1.17 ± 0.36.

Regarding GCGCAGCAAUAUUACGCCCG, the “self-splicing fitness (ln)” value was -1.59 ± 0.2 (30 °C) and 0.0341 ± 0.27 (37 °C).

In the case of GCGCAGCAAUAUUACGCCGU, the “self-splicing fitness (ln)” value runs as follows: (30 °C) -1.57 ± 0.13; (37 °C) -2.07 ± 0.27.

For GCGCAGCAAUAUUACGCCUG, the “self-splicing fitness (ln)” value is -2.75 ± 0.15 (30 °C) and -1.48 ± 0.15 (37 °C).

GCGCAGCAAUAUUACGCGCA: the “self-splicing fitness (ln)” value runs as follows: (30 °C) -4.09 ± 0.32; (37 °C) 0.322 ± 0.13.

Regarding GCGCAGCAAUAUUACGCUAU, the “self-splicing fitness (ln)” value (30 °C) is -0.914 ± 0.096 and the “self-splicing fitness (ln)” value (37 °C) is -0.406 ± 0.12.

GCGCAGCAAUAUUACGCUGA: the “self-splicing fitness (ln)” value is -1.16 ± 0.12 (30 °C) and -0.667 ± 0.1 (37 °C).

As to GCGCAGCAAUAUUACGGAAU, the “self-splicing fitness (ln)” value by setting is: (30 °C) -1.12 ± 0.13; (37 °C) -0.337 ± 0.15.

In the case of GCGCAGCAAUAUUACGGACU, the “self-splicing fitness (ln)” value by setting is: (30 °C) -0.744 ± 0.12; (37 °C) -0.35 ± 0.12.

Turning to GCGCAGCAAUAUUACGGAGA, the “self-splicing fitness (ln)” value is -4.36 ± 0.42 (30 °C) and -1.69 ± 0.19 (37 °C).

Consider GCGCAGCAAUAUUACGGCUG, for which the “self-splicing fitness (ln)” value reads like this: (30 °C) -3.01 ± 0.3; (37 °C) -1.7 ± 0.29.

Turning to GCGCAGCAAUAUUACGGGCG, the “self-splicing fitness (ln)” value by setting is: (30 °C) -3.71 ± 0.47; (37 °C) -3.03 ± 0.4.

GCGCAGCAAUAUUACGGUGA: the “self-splicing fitness (ln)” value reads like this: (30 °C) -0.545 ± 0.066; (37 °C) -0.107 ± 0.086.

Take GCGCAGCAAUAUUACGUAAU: the “self-splicing fitness (ln)” value is, setting by setting: (30 °C) -0.192 ± 0.061; (37 °C) 0.31 ± 0.07.

As for GCGCAGCAAUAUUACGUACC, the “self-splicing fitness (ln)” value runs as follows: (30 °C) -1.63 ± 0.11; (37 °C) -0.655 ± 0.13.

Take GCGCAGCAAUAUUACGUACG: the “self-splicing fitness (ln)” value (30 °C) is -3.47 ± 0.2 and the “self-splicing fitness (ln)” value (37 °C) is -1.09 ± 0.16.

As for GCGCAGCAAUAUUACGUAUA, the “self-splicing fitness (ln)” value by setting is: (30 °C) -1.31 ± 0.06; (37 °C) -1.05 ± 0.081.

As to GCGCAGCAAUAUUACGUCGU, the “self-splicing fitness (ln)” value is, setting by setting: (30 °C) -3.02 ± 0.12; (37 °C) -2.75 ± 0.18.

Consider GCGCAGCAAUAUUACGUCUU, for which the “self-splicing fitness (ln)” value is -0.65 ± 0.049 (30 °C) and 0.336 ± 0.064 (37 °C).

Turning to GCGCAGCAAUAUUACGUGAU, the “self-splicing fitness (ln)” value runs as follows: (30 °C) -0.659 ± 0.063; (37 °C) 0.488 ± 0.083.

With GCGCAGCAAUAUUACGUGGU, the “self-splicing fitness (ln)” value was -2.14 ± 0.081 (30 °C) and -1.02 ± 0.086 (37 °C).
